B1: VHH R3VQ (VHH)
VHH: EVQLQASGGGLVQTGDSLRLSCADSGSTFRNYNIGWFRQTPGQAREFVAAVSRTGISTHVADSLQGRFTISRDNAKNTVYLQMNSLKPEDTAVYSCAAGRPGVGAVNRAMDYDYWGQGTQVTVSS
notes: Alpaca VHH, monomeric; Expressed with a His-tag or a Strep-tag; also called R3VQ(His)-NH2 1; R3VQ-NH2 1; not shown: 6-Histidine tag (vector pET23) or Streptavidin-tag (vector pASK IBA2)
B2: R3VQ(His)-N-(DOTA/Gd) conjugate 2d (VHH)
VHH: B1 VHH
modifications: DOTA/Gd randomly on lysine residues; average Gd/protein (1) 2 (3)
notes: Non-site-specific conjugate of R3VQ(His)-NH2 1; not shown: 6-Histidine tag from modified vector pET23
B3: R3VQ(His)-N-(DOTA/Gd) conjugate 2c (VHH)
VHH: B1 VHH
modifications: DOTA/Gd randomly on lysine residues; average Gd/protein (1) 2 (3)
notes: as for B2
B4: Aβ 16-35 (peptide)
peptide: KLVFFAEDVGSNKGAIIGLM
notes: This fragment is not in the list of fragments said to be tested (1-16, 10-20, 15-25, 22-35, 29-40)

The target in one assay is T1, A-beta 42 peptide (Aβ42) (human).
T1 construct: Synthetic peptide (Bachem); on the western blot it ran as monomers, dimers and trimers; also called Aβ1-42; amyloid β peptide 42
Briefly: competition ELISA in solution (method of Friguet et al.). On the technique in general: An ELISA detects its analyte on a solid surface through an enzyme-linked reagent.

The next assay deals with T2, Aβ fragment 1-16 (human).
T2 construct: also called Aβ1-16; Aβ16
T2 peptide: DAEFRHDSGYEVHHQK
Put plainly: competitive inhibition ELISA with soluble Aβ fragments. The procedure:
(§1) The binding affinity of VHHs was determined as previously described (Friguet B. et al., 1985, Immunol Methods, 77:305-19). Briefly, various concentrations of Aβ peptides (Aβ fragments 1-16, 10-20, 15-25, 22-35 and 29-40) were incubated in solution overnight at 4° C. with a known quantity of VHH until equilibrium was reached. The VHH concentration used was deteimined by preliminary ELISA calibrations. Each mixture (100 μl) was transferred to a well of a microtiter plate previously coated with antigen and was incubated for 20 min at 4° C. The plates were washed with buffer 0.1% Tween 20 in PBS and bound VHHs were detected by adding beta-galactosidase-conjugated goat anti-rabbit Igs (Biosys, Compiegne, France) and 4-methylumbelliferyl […] (Sigma). Fluorescence was read (Fluoroskan, Labsystem, Finland) at 460 nm, after excitation at 355 nm. KD was estimated from the slope of the regression curve obtained by plotting the reciprocal of the fraction of bound antibody versus the reciprocal of the molar concentration of antigen.

Another assay deals with T3, Aβ fragment 29-40 (human).
T3 peptide: GAIIGLMVGGVV
Described as above. The method, then: as §1

For a further assay, the target named is T4, A-beta 40 peptide (Aβ40) (human, biotinylated when bound to the streptavidin-coated ELISA plate).
T4 construct: Aβ42 without the C-terminal amino acids IA; The ELISA methods say A-beta 40 or A-beta 42 (preferably A-beta 40); also called Aβ1-40
Briefly: ELISA on plate-bound Aβ.

The target of the assay “VHH R3VQ” is B1. Briefly: competitive inhibition ELISA, soluble peptide against plate-coated Aβ antigen. The method, then:
as §1

T4 sequence (peptide, as listed by the source): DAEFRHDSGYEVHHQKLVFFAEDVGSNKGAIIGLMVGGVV
T1 sequence (peptide, as listed by the source): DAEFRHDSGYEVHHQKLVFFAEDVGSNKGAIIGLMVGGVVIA

On to B1, for which the dissociation constant Kd (usually the equilibrium constant for the complex coming apart) in the assay with A-beta 42 peptide (Aβ42) is 17 nM. The binding result in the assay with Aβ fragment 1-16 and with Aβ fragment 29-40 was “no binding” in each case.

With B2, the “binding in ELISA compared to the original VHH 1” value with A-beta 40 peptide (Aβ40) was ~10%. On the same count and under the same terms, under B3 stands ~10%.

B4: the 50% inhibitory concentration (IC50) (in general, the midpoint of a concentration-inhibition curve) with VHH R3VQ came to 16 nM.

These data come from patent US20160355575A1 (Hoffmann-La Roche, published 2016).
